Laboratory results from paper PMC3410805, “Lipopolysaccharide impairs amyloid beta efflux from brain: altered vascular sequestration, cerebrospinal fluid reabsorption, peripheral clearance and transporter function at the blood–brain barrier” (Journal of Neuroinflammation, 2012).
No end group written: not given here.

Columns and labels:
[1] = Clearance of IV-injected I-Aβ from serum; type: in vivo, CD-1 mice; details: linear regression, n = 7–10 per group
Description: All animal protocols were performed in an Association for Assessment and Accreditation of Laboratory Animal Care accredited facility and approved by the animal committee of the VA and St Louis University Medical Centers. Male CD-1 mice were purchased from Charles River and kept on a 12/12 hour light/dark cycle with food and water freely available. Mice at 6–8 weeks of age were treated with 3 intraperitoneal (IP) injections of 3 mg/kg LPS from Salmonella typhimurium (Sigma, St. Louis, MO, USA) dissolved in sterile normal saline over a 24-hour period as previously described. […]
In BSA/lactated Ringer’s solution 3 × 10^5 CPM of ^131I-Aβ and ^125I-albumin were prepared and injected together into the jugular vein of mice treated with LPS or saline. […] Blood was allowed to clot, spun at 5,000 g to separate serum from blood cells, and 50 μl serum was counted along with harvested tissues from liver and kidney in a gamma counter. The rate of I-Aβ tissue uptake was determined using multiple-time regression analysis. For this analysis, experimental clock time was re-expressed as exposure time to correct for clearance of I-Aβ from the blood. Exposure time was calculated from the formula: […]
Serum clearance was calculated by plotting the log serum CPM/50 μl versus experimental clock time. […]

[2] = Aβ uptake by liver and kidney, multiple-time regression analysis; type: in vivo, CD-1 mice; details: IV, mean ± SEM, n = 7–10 per group
Description: All animal protocols were performed in an Association for Assessment and Accreditation of Laboratory Animal Care accredited facility and approved by the animal committee of the VA and St Louis University Medical Centers. Male CD-1 mice were purchased from Charles River and kept on a 12/12 hour light/dark cycle with food and water freely available. Mice at 6–8 weeks of age were treated with 3 intraperitoneal (IP) injections of 3 mg/kg LPS from Salmonella typhimurium (Sigma, St. Louis, MO, USA) dissolved in sterile normal saline over a 24-hour period as previously described. Briefly, the first injection was given in the morning, and the second and third injections were given at 6 and 24 hours following the first injection, respectively. All mice were studied at 28 hours following the first injection. […] No mice died as a result of this treatment regimen. A total of 225 mice were used in this study: 90 were used for detection of oxidative modifications to LRP-1 and Pgp measurement, 30 for LRP-1 measurement, 44 for measurement of Aβ and a2M vascular sequestration, 20 for CSF bulk flow measurement, 21 for measurement of peripheral Aβ clearance, and 20 for primary endothelial cell culture.
In BSA/lactated Ringer’s solution 3 × 10^5 CPM of ^131I-Aβ and ^125I-albumin were prepared and injected together into the jugular vein of mice treated with LPS or saline. The liver, the left kidney, and blood from the carotid artery were collected at 1, 2, 5, 10, and 20 minutes. Blood was allowed to clot, spun at 5,000 g to separate serum from blood cells, and 50 μl serum was counted along with harvested tissues from liver and kidney in a gamma counter. The rate of I-Aβ tissue uptake was determined using multiple-time regression analysis. For this analysis, experimental clock time was re-expressed as exposure time to correct for clearance of I-Aβ from the blood. Exposure time was calculated from the formula:
(5) Exposuretime=∫0tCpttdt/Cpt
where t equals experimental clock time, Cp represents the level of radioactivity in the serum over time and Cpt is the level of radioactivity in the serum at time t. Tissue/serum ratios were then calculated from the following formula:
(6) Tissue/serumratio=serumvolumetissueCPM/tissueweightserumCPM
To correct for alterations in vascular space and/or vascular permeability which occur with LPS administration, tissue/serum ratios for I-albumin were subtracted from those for I-Aβ. The corrected tissue/serum ratios were plotted against exposure time calculated for Aβ, and the unidirectional influx constant determined from the slope of the linear portion of the curve.

murine BBB = details: compared with human Aβ1-42; cited from earlier work
Excerpt: In this study we have shown that peripheral administration of LPS inhibits CSF bulk flow, central and peripheral clearance of Aβ, and increases vascular sequestration of Aβ. […] Al ...

[3] = LPS-treated mice (3 x 3 mg/kg IP, studied at 28 h), corrected for I-albumin

Substance	half-life in serum ([1]; LPS-treated mice (3 x 3 mg/kg IP at 0, 6, 24 h, studied at 28 h), IV injection, serum at 1-20 min) [min]	half-life in serum ([1]; saline-treated mice, IV (jugular vein) injection, serum at 1, 2, 5, 10, 20 min, log serum CPM/50 μl vs time) [min]	unidirectional influx rate of Aβ into kidney (Ki) [2, 3] [µL/g/min]	unidirectional influx rate of Aβ into liver (Ki) [2, 3] [µL/g/min]	unidirectional influx rate of Aβ into kidney (Ki) ([2]; saline-treated mice, corrected for I-albumin) [µL/g/min]	unidirectional influx rate of Aβ into liver (Ki) ([2]; saline-treated mice, tissue/serum ratio corrected for I-albumin vs exposure time) [µL/g/min]	rate of clearance across the murine BBB (murine BBB)
I-Aβ: Murine Aβ1-42 (Bachem) radioactively labeled with 125I or 131I by the chloramine-T method (DAEFGHDSGFEVRHQKLVFFAEDVGSNKGAIIGLMVGGVVIA; also: 125I or 131I radiolabel, residue not given here; UniProt P12023 672-713, looked up)	8.4	4	0.5608 ± 3.859	8.356 ± 6.433	41.26 ± 10.46	34.67 ± 3.444	
murine Aβ1-42: Murine amyloid beta 1-42 purchased from Bachem (DAEFGHDSGFEVRHQKLVFFAEDVGSNKGAIIGLMVGGVVIA; Amyloid-beta protein 42; UniProt P12023 672-713, looked up)							cleared at a faster rate across the murine BBB than human Aβ1-42
